The Human Domainome abundance scans (Beltran et al. 2025)

B1: POU domain, class 3, transcription factor 2, residues 356 to 411; numbered along this chain, P20265 (parent)
chain: KKRTSIEVSVKGALESHFLKCPKPSAQEITSLADSLQLEKEVVRVWFCNRRQKEKR

Variants of: B1
Assay: abundance fitness (aPCA) (normalised: wild type 0, dead -1); higher = more abundant; growth selection in yeast, the domain comes from the species named
Details: Homo sapiens

Abundance fitness, by site and new letter:
R51: T -0.447, I -0.397, N -0.402, S -0.323, D -0.381, L 0.061, P -0.831, V -0.245, F -0.354, W -0.1, G -0.198, C -0.442, E -0.154, M -0.156, A -0.136, H -0.098
E39: N -0.217, W -0.943, M -0.941, T -0.159, P -0.244, R -0.404, Y -0.653, I -0.982, S -0.039, L -0.847, K -0.121
K40: M -0.013, R 0.017, D -0.344, H 0.132, F -0.004, N 0.021, A -0.017, G -0.085, W -0.178, C -0.153, P -0.027, V 0.007, E 0.096, S -0.036, Q 0.078, L -0.147
K53: D -0.234, V -0.517, Y -0.545, T 0.024, G -0.112, A -0.602, L -0.18, R -0.457, C 0.025, M 0.11, H -0.204
E54: K -0.495, M -0.407, G -0.454, S -0.538, D -0.185, R -0.472, I -0.665, L -0.313, Q -0.177, Y -0.337, A -0.255, H -0.417, C -0.284, P -0.861, V -0.466, N -0.407, W -0.581, F -0.764, T -0.518
R44: Y -0.416, N -0.152, I -0.272, Q -0.057, W -0.412, F -0.481, T -0.08, M -0.214, H -0.127, A -0.027, D 0.008, E 0.027, S -0.09, V -0.38, C -0.495, L -0.407, G -0.188, P -0.814
E41: H -0.168, F -0.723, K -0.446, A -0.238, N -0.069, Y -0.489, C -0.558, D -0.114, V -0.596, T -0.303, S -0.256, M -0.791, R -0.337, G -0.408, Q -0.26, P -0.697, W -0.494, L -0.881
V43: Q -0.877, P -0.891, H -0.938, E -1.01, R -0.95, C -0.547, T -0.841, K -0.909, S -0.985, L -0.361, D -0.958, I -0.197, N -0.889, A -0.615, M -0.944, W -0.793, G -0.906, Y -0.955
R56: Q -0.119, D 0.12, G 0.042, Y -0.413, P -0.58, I -0.508, S -0.194, E -0.031, N 0.008, A -0.335, W -0.234, L 0.131, V -0.033, M 0.157, T 0.063, C 0.045
F47: Y -0.328, N -0.967, I -0.751, P -0.941, L -0.722, A -0.92, S -0.871, G -0.698, C -0.937, Q -1, D -0.852, M -0.43, K -0.961, E -0.672, V -0.784
C48: P -0.948, R -0.217, Y 0.096, W -0.007, D -0.053, V -0.015, N -0.165, M -0.052, T -0.105
